The source of these data is the supplement of paper PMC9112550, “Optimization of the antimicrobial peptide Bac7 by deep mutational scanning” (BMC Biology, 2022).

The series deals with Escherichia coli TOP10. Briefly: shrunken log2 fold change of peptide-encoding DNA abundance (4.5 h post-induction vs induction); higher = less antimicrobial activity (less host growth inhibition). The note with it: time post-induction: 4.5 h; library: site-saturation at positions 5, 18, 19, 20.
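Also: peptides expressed intracellularly from a pBAD plasmid library in pooled LB shake-flask culture, induced with 0.3% L-arabinose, DNA abundance read by NGS, three biological replicates, DESeq2 with apeglm shrinkage.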

As to RRIRTRPPRLPRPRPRPRQSPRP, the “shrunken log2 fold change” value turned out to be 0.159.

Regarding RRIRMRPPRLPRPRPRPCHWPRP, the “shrunken log2 fold change” value was -0.022.

As to RRIRHRPPRLPRPRPRPDTVPRP, the “shrunken log2 fold change” value was 0.028.

RRIRIRPPRLPRPRPRPMAHPRP: the “shrunken log2 fold change” value is -0.0137.

As for RRIRYRPPRLPRPRPRPDKCPRP, the “shrunken log2 fold change” value is -0.107.

Turning to RRIRFRPPRLPRPRPRPLPTPRP, the “shrunken log2 fold change” value was found to be 0.336.

Regarding RRIRIRPPRLPRPRPRPTMSPRP, the “shrunken log2 fold change” value was -0.124.

In the case of RRIRVRPPRLPRPRPRPKVEPRP, the “shrunken log2 fold change” value stood at 0.317.

For the sequence RRIRARPPRLPRPRPRPMTIPRP, the “shrunken log2 fold change” value was -0.113.

As to RRIRWRPPRLPRPRPRPCLAPRP, the “shrunken log2 fold change” value amounted to 0.329.

For the sequence RRIRPRPPRLPRPRPRPRNYPRP, the “shrunken log2 fold change” value is 0.000451.

In the case of RRIRPRPPRLPRPRPRPNLCPRP, the “shrunken log2 fold change” value came out at 0.138.

Regarding RRIRTRPPRLPRPRPRPCWPPRP, the “shrunken log2 fold change” value is 0.0465.

Consider RRIRFRPPRLPRPRPRPGCFPRP, for which the “shrunken log2 fold change” value is 0.0214.

Turning to RRIRCRPPRLPRPRPRPHPTPRP, the “shrunken log2 fold change” value is -0.0382.

For RRIRCRPPRLPRPRPRPMMMPRP, the “shrunken log2 fold change” value is 2.91.

RRIRERPPRLPRPRPRPQIHPRP: the “shrunken log2 fold change” value is -0.835.

For the sequence RRIRRRPPRLPRPRPRPNPYPRP, the “shrunken log2 fold change” value is -0.0616.

Regarding RRIRQRPPRLPRPRPRPRYHPRP, the “shrunken log2 fold change” value is -0.784.

For RRIRLRPPRLPRPRPRPVHGPRP, the “shrunken log2 fold change” value was determined as 0.0748.

Regarding RRIRARPPRLPRPRPRPPRCPRP, the “shrunken log2 fold change” value turned out to be 0.931.

In the case of RRIRSRPPRLPRPRPRPFLMPRP, the “shrunken log2 fold change” value is 3.07.

With RRIRDRPPRLPRPRPRPLHGPRP, the “shrunken log2 fold change” value amounted to 0.01.

Consider RRIRCRPPRLPRPRPRPLGGPRP, for which the “shrunken log2 fold change” value stood at 0.281.

As for RRIRCRPPRLPRPRPRPQETPRP, the “shrunken log2 fold change” value came to 0.00739.

As for RRIRVRPPRLPRPRPRPYILPRP, the “shrunken log2 fold change” value is -0.278.

As for RRIRSRPPRLPRPRPRPECEPRP, the “shrunken log2 fold change” value is -0.0828.

Take RRIRVRPPRLPRPRPRPGYCPRP: the “shrunken log2 fold change” value was -0.307.

As for RRIRPRPPRLPRPRPRPAYNPRP, the “shrunken log2 fold change” value was -1.01.

For the sequence RRIRNRPPRLPRPRPRPGTQPRP, the “shrunken log2 fold change” value is -0.128.

On to RRIRLRPPRLPRPRPRPICCPRP, for which the “shrunken log2 fold change” value is -0.205.

Take RRIRVRPPRLPRPRPRPLHVPRP: the “shrunken log2 fold change” value is -0.311.

For the sequence RRIRMRPPRLPRPRPRPAIVPRP, the “shrunken log2 fold change” value was -0.161.

For the sequence RRIRRRPPRLPRPRPRPMETPRP, the “shrunken log2 fold change” value was -0.12.

For RRIRERPPRLPRPRPRPNQKPRP, the “shrunken log2 fold change” value was -0.108.

Regarding RRIRKRPPRLPRPRPRPKSAPRP, the “shrunken log2 fold change” value turned out to be 0.656.

Turning to RRIRLRPPRLPRPRPRPGYQPRP, the “shrunken log2 fold change” value was -0.133.

In the case of RRIRERPPRLPRPRPRPMNWPRP, the “shrunken log2 fold change” value was 0.0377.

In the case of RRIRFRPPRLPRPRPRPIGMPRP, the “shrunken log2 fold change” value is -0.0266.

As to RRIRMRPPRLPRPRPRPCCWPRP, the “shrunken log2 fold change” value is 0.787.

Take RRIRVRPPRLPRPRPRPCWNPRP: the “shrunken log2 fold change” value was determined as 0.0501.

RRIRRRPPRLPRPRPRPALWPRP: the “shrunken log2 fold change” value is 1.02.

In the case of RRIRYRPPRLPRPRPRPCMFPRP, the “shrunken log2 fold change” value is -0.981.

On to RRIRYRPPRLPRPRPRPMLFPRP, for which the “shrunken log2 fold change” value was -0.347.

Consider RRIRVRPPRLPRPRPRPWCSPRP, for which the “shrunken log2 fold change” value is -0.638.

With RRIRIRPPRLPRPRPRPLMIPRP, the “shrunken log2 fold change” value was -0.807.

Consider RRIRERPPRLPRPRPRPYRYPRP, for which the “shrunken log2 fold change” value is -0.107.

For RRIRVRPPRLPRPRPRPCQDPRP, the “shrunken log2 fold change” value is -0.336.

On to RRIRWRPPRLPRPRPRPSTKPRP, for which the “shrunken log2 fold change” value was -0.0244.

RRIRPRPPRLPRPRPRPHAEPRP: the “shrunken log2 fold change” value is 0.206.

For the sequence RRIRKRPPRLPRPRPRPANQPRP, the “shrunken log2 fold change” value was determined as 0.239.

For RRIRNRPPRLPRPRPRPHRRPRP, the “shrunken log2 fold change” value is 0.143.

On to RRIRCRPPRLPRPRPRPPGVPRP, for which the “shrunken log2 fold change” value is 0.158.

For the sequence RRIRPRPPRLPRPRPRPHGEPRP, the “shrunken log2 fold change” value is -0.159.

RRIRYRPPRLPRPRPRPMADPRP: the “shrunken log2 fold change” value was -0.0453.

For RRIRVRPPRLPRPRPRPLQEPRP, the “shrunken log2 fold change” value was found to be 0.298.

Consider RRIRLRPPRLPRPRPRPLHSPRP, for which the “shrunken log2 fold change” value was -0.0843.

In the case of RRIRTRPPRLPRPRPRPADIPRP, the “shrunken log2 fold change” value was -0.0781.

For the sequence RRIRSRPPRLPRPRPRPITNPRP, the “shrunken log2 fold change” value came out at 0.266.

Regarding RRIRDRPPRLPRPRPRPLMQPRP, the “shrunken log2 fold change” value stood at 0.823.

In the case of RRIRARPPRLPRPRPRPWDKPRP, the “shrunken log2 fold change” value was 0.0886.

In the case of RRIRMRPPRLPRPRPRPKWNPRP, the “shrunken log2 fold change” value came out at 0.523.

RRIRERPPRLPRPRPRPARAPRP: the “shrunken log2 fold change” value turned out to be 0.522.

In the case of RRIRQRPPRLPRPRPRPVSDPRP, the “shrunken log2 fold change” value is -0.0568.

Consider RRIRPRPPRLPRPRPRPDVAPRP, for which the “shrunken log2 fold change” value is -0.0448.

Turning to RRIRNRPPRLPRPRPRPFTQPRP, the “shrunken log2 fold change” value is -0.348.

For the sequence RRIRHRPPRLPRPRPRPATRPRP, the “shrunken log2 fold change” value amounted to 0.0209.

Turning to RRIRVRPPRLPRPRPRPIWKPRP, the “shrunken log2 fold change” value is -0.168.

Turning to RRIRVRPPRLPRPRPRPHNVPRP, the “shrunken log2 fold change” value is -0.859.

Take RRIRWRPPRLPRPRPRPWAFPRP: the “shrunken log2 fold change” value was found to be 0.044.

With RRIRHRPPRLPRPRPRPAAIPRP, the “shrunken log2 fold change” value stood at 0.0732.

As to RRIRVRPPRLPRPRPRPYHRPRP, the “shrunken log2 fold change” value was -2.18.

On to RRIRSRPPRLPRPRPRPQMEPRP, for which the “shrunken log2 fold change” value was 0.0832.

RRIRERPPRLPRPRPRPDMGPRP: the “shrunken log2 fold change” value is -0.265.

For the sequence RRIRHRPPRLPRPRPRPTGLPRP, the “shrunken log2 fold change” value is -0.515.

Take RRIRGRPPRLPRPRPRPKCTPRP: the “shrunken log2 fold change” value came out at 0.978.

Consider RRIRDRPPRLPRPRPRPIVSPRP, for which the “shrunken log2 fold change” value was determined as 0.041.

Take RRIRTRPPRLPRPRPRPGLWPRP: the “shrunken log2 fold change” value is 0.521.

In the case of RRIRQRPPRLPRPRPRPIPKPRP, the “shrunken log2 fold change” value was -0.0574.

With RRIRTRPPRLPRPRPRPPHSPRP, the “shrunken log2 fold change” value was -0.141.

Take RRIRMRPPRLPRPRPRPARRPRP: the “shrunken log2 fold change” value turned out to be 1.35.

On to RRIRHRPPRLPRPRPRPIKPPRP, for which the “shrunken log2 fold change” value was -0.236.

As for RRIRVRPPRLPRPRPRPRWFPRP, the “shrunken log2 fold change” value is -0.0978.

With RRIRIRPPRLPRPRPRPWNNPRP, the “shrunken log2 fold change” value is -0.89.

Regarding RRIRNRPPRLPRPRPRPPRWPRP, the “shrunken log2 fold change” value is 0.147.

Take RRIRDRPPRLPRPRPRPVYKPRP: the “shrunken log2 fold change” value was -0.601.

For the sequence RRIRGRPPRLPRPRPRPYHPPRP, the “shrunken log2 fold change” value was -0.559.

With RRIRWRPPRLPRPRPRPFISPRP, the “shrunken log2 fold change” value was -0.174.

RRIRVRPPRLPRPRPRPSPWPRP: the “shrunken log2 fold change” value was 0.021.

Consider RRIRIRPPRLPRPRPRPEFKPRP, for which the “shrunken log2 fold change” value was determined as 0.387.

Turning to RRIRIRPPRLPRPRPRPFDLPRP, the “shrunken log2 fold change” value is -0.348.

With RRIRRRPPRLPRPRPRPMPWPRP, the “shrunken log2 fold change” value came to 0.119.

In the case of RRIRARPPRLPRPRPRPYNWPRP, the “shrunken log2 fold change” value is -0.481.

In the case of RRIRTRPPRLPRPRPRPLRTPRP, the “shrunken log2 fold change” value came to 0.26.

Turning to RRIRFRPPRLPRPRPRPMMPPRP, the “shrunken log2 fold change” value is -0.0286.

For the sequence RRIRLRPPRLPRPRPRPAGMPRP, the “shrunken log2 fold change” value came to 0.213.

Regarding RRIRLRPPRLPRPRPRPSQMPRP, the “shrunken log2 fold change” value was -0.261.

As to RRIRWRPPRLPRPRPRPWFMPRP, the “shrunken log2 fold change” value is -0.222.

In the case of RRIRCRPPRLPRPRPRPNRHPRP, the “shrunken log2 fold change” value is -0.388.

With RRIRQRPPRLPRPRPRPHTWPRP, the “shrunken log2 fold change” value was -0.206.

As for RRIRARPPRLPRPRPRPIMEPRP, the “shrunken log2 fold change” value stood at 0.0783.

In the case of RRIRLRPPRLPRPRPRPDMQPRP, the “shrunken log2 fold change” value is -0.0583.

In the case of RRIRERPPRLPRPRPRPRICPRP, the “shrunken log2 fold change” value was -0.111.

Turning to RRIRERPPRLPRPRPRPDVFPRP, the “shrunken log2 fold change” value is -0.0359.

With RRIRPRPPRLPRPRPRPWPVPRP, the “shrunken log2 fold change” value was determined as 0.317.

Turning to RRIRYRPPRLPRPRPRPHTNPRP, the “shrunken log2 fold change” value was -0.661.

RRIRFRPPRLPRPRPRPDYHPRP: the “shrunken log2 fold change” value was -0.935.

With RRIRARPPRLPRPRPRPFWQPRP, the “shrunken log2 fold change” value came out at 0.0762.

As to RRIRNRPPRLPRPRPRPTPNPRP, the “shrunken log2 fold change” value came out at 0.185.

Turning to RRIRIRPPRLPRPRPRPVPYPRP, the “shrunken log2 fold change” value is -0.556.

As to RRIRYRPPRLPRPRPRPYHWPRP, the “shrunken log2 fold change” value is -0.115.

As to RRIRCRPPRLPRPRPRPWGGPRP, the “shrunken log2 fold change” value was found to be 0.36.

With RRIRTRPPRLPRPRPRPYSEPRP, the “shrunken log2 fold change” value is -0.212.

With RRIRWRPPRLPRPRPRPEMHPRP, the “shrunken log2 fold change” value worked out at 0.952.

For the sequence RRIRARPPRLPRPRPRPPDYPRP, the “shrunken log2 fold change” value came out at 0.406.

Regarding RRIRERPPRLPRPRPRPYCWPRP, the “shrunken log2 fold change” value is -0.509.

Turning to RRIRMRPPRLPRPRPRPRFNPRP, the “shrunken log2 fold change” value was determined as 0.148.

Consider RRIRVRPPRLPRPRPRPSKCPRP, for which the “shrunken log2 fold change” value is -0.0461.

For RRIRDRPPRLPRPRPRPNMIPRP, the “shrunken log2 fold change” value was -0.0358.

Take RRIRCRPPRLPRPRPRPATKPRP: the “shrunken log2 fold change” value came to 0.0383.

Consider RRIRNRPPRLPRPRPRPPNVPRP, for which the “shrunken log2 fold change” value is -0.0463.

RRIRMRPPRLPRPRPRPRIWPRP: the “shrunken log2 fold change” value is 0.726.

With RRIRRRPPRLPRPRPRPFKPPRP, the “shrunken log2 fold change” value amounted to 0.174.

As for RRIRIRPPRLPRPRPRPVRRPRP, the “shrunken log2 fold change” value worked out at 0.377.

For RRIRPRPPRLPRPRPRPPQFPRP, the “shrunken log2 fold change” value stood at 0.297.
